The source of these data is US20260069689A1 (Regeneron, published 2026).

The chains are these.
B1: mAb15156 (antibody, V domains shown)
VH: QLQLQESGPGLVKSSETLSLTCTVSASITGSTYYWGWIRQPPGKGLEWIGSIYYSGTTYYKASLKSRVTISVDTSKNQFSLKLTSVTVADTAVYYCVSHLLGNYHKYGMDVWGQGTTVTVSS
VL: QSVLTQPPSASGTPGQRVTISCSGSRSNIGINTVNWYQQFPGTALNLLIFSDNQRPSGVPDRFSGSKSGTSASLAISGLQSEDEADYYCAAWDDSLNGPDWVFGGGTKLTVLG
B2: mAb14292 (antibody, V domains shown)
VH: EVQLVESGGGLVQPGGSLRLSCVASGFAFSTYEMNWVRQAPGKGLEWVSYISSSGSTIYYADSVKGRLTISRDNVKNSLYLQMNSLRVEDTAIYYCARDAIRNNDILTDPATFDPWGQGTLVTVSS
VL: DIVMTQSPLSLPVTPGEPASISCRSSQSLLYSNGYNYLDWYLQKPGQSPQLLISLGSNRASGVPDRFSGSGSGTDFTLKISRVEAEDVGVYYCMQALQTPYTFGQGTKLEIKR
B3: mAb14230 (antibody, V domains shown)
VH: EVQLVESGGGLIQPGRSLRLSCAASGFTFDDYAMHWVRQAPGKGLEWVSGISWNSVSIDYADSVKGRFTISRDNAKNSLYLQMTSLTVEDTALYYCAKAFGYETLTGSDYFAYWGPGTLVTVSS
VL: EIVLTQSPGTLSLSPGERATLSCRASQTVISTYLAWYQQKPGQSPRLLIYGASSRATGIPDRFSGSGSGTDFTLTISRLEPEDFAVYYCQQYGSSPQLTFGGGTKVEIKR
B4: mAb15159 (antibody, V domains shown)
VH: EVQLVESGGGLVQPGGSLRLSCAASGITVSSNYMTWVRQAPGKGLEWVSLIYSGGSTFYADSVRGRFTISRDNSKNTLYLQMNSLRAEDTAVYYCARDLVVYGMDVWGQGTTVTVSS
VL: DIQLTQSPSSLSASVGDRVTITCRASQGISSYLAWYQQKPGKAPKLLIYAASTLQSGVPSRFSGSGSGTDFTLTISSLQPEDFATYYCQHLNSDPHTFGQGTKLEIKR
B5: mAb15158 (antibody, V domains shown)
VH: EVQLVESGGGLVQPGGSLRLSCAASGFSFSSNWMSWVRQAPGKGLEWVGNINQDGSEKYYVDSVEGRFTISRDNAKKSLYLQMNSLRAEDTAVYYCARDLGVLWFGDFVDWGQGALVTVSS
VL: DIQMTQSPSSLSASVGDRVTITCRASQAISNSLAWYQQKPGKAPKLLLYAASTLESGVPSRFSGSGSGTDYTLTISSLQPEDFATYYCLQYYGSPRTFGQGTKVEIKR
B6: mAb14286 (antibody, V domains shown)
VH: QVQLVQSGAEVKKPGASVKVSCKASGYTFTDYFIHWVRQAPGQGLEWMGWINPTSGGTNYAQKFRGRVTMTRDTSISTAYVELSRLRSDDTALYYCARDLPFYSDTKQFDYWGQGTLVTVSS
VL: QSALTQPASVSGYPGQSITISCTGTSSDVGGYNYVSWYQQHPGKAPKLMIFDVSNRPSGVSNRFSGSKSGNTASLTFSGLQAEDEADYYCSSYTSSSTLVFGGGTKLTVLG
B7: mAb14280 (antibody, V domains shown)
VH: QVQLVQSGAEVKKPGASVRVSCKASGYTFTGNYIHWVRQAPGQGLEWMAWINPNSGGKNYAQKFQGRVTLTRDTSVNTAYMELSRLRSDDTAMYYCARDVNYNILTGPGGLWGQGTLVTVSS
VL: QSALTQPPSASGSPGQSVTISCTGTSSDVGGYNFVSWYQQHPGKAPKLMIYEVSKRPSGVPDRFSGSKSGNTASLTVSGLQAEDEADYYCSSYAGSNNFVFGTGTKVTVLG
B8: mAb15162 (antibody, V domains shown)
VH: EVQLVETGGGLIQPGGSLRLSCAASEFIVSRNYMSWVRQAPGKGLEWVSLIYSGGSTYYADSVKGRFTISRDNSKNILYLQMNSLRAEDTAVYYCARDRGGISDYWGQGTLVTVSS
VL: DIQMTQSPSSLSASVGDRVTITCQASQDINKYLNWFQQKPGKAPKLLIYDASNLETGVPSRFSGSGSGTDFTFTISSLQPEDIATYYCQQYDNLPRTFGQGTKLEIKR
B9: mAb14256 (antibody, V domains shown)
VH: QVQLQESGPGLVKPSETLSLTCTVSGGSISSHYWSWIRQPPGKGLEWIGYIYYSGSSNYNPSLKSRVTISVDTSKNQFSLKLNSVTAADTAVYYCARHYDILTGFDWFDPWGQGTLVTVSS
VL: QSVLTQPPSVSGAPGQRVTISCTGSSSNIGTHYDVHWYQQLPGTAPKLLIYGNSNRPSGVPDRFSGSKSGTSASLAITGLQAEDEADYYCQSFDNSLTAPYVFGTGTKVTVLG
B10: mAb14234 (antibody, V domains shown)
VH: QVQLVESGGGVVQPGRSLRLSCAASGFTFSSYGIHWVRQAPGKGLEWVAIIWYDGSEKYYADSVKGRFTISRDNSKNTLFLQMNSLEAEDTAVYYCARGPDLLTGYYNYFYYGMDVWGQGTTVTVSS
VL: QSVLTQPPSVSGAPGQRVTISCTGSSSNIGIGYDVHWYQQLPGTVPKLLIYGNTNRPSGVPDRFSGSKSGTSASLAITGLQAEDEADYYCQSYDSSLSSYVFGTGTKVTVLG
B11: mAb14232 (antibody, V domains shown)
VH: QITLKESGPTLVKPTQTLTLTCTFSGFSLSASGVGVGWIRQPPGKALEWLALIYWDDDKRYSPSLKSRLTITKDTSKNQVVLTMTNMDPVDTATYYCAQHKVATIFDYWGQGTLVTVSS
VL: QSALTQPPSASGSPGQSVTISCTATSSDVGNYNYVSWYQQHPGKAPKLMIYEVTKRPSGVPDRFSGSKSGNTASLTVSGLQAEDEADYYCSSYAGSWGVFGGGTKLTVLG
B12: mAb14281 (antibody, V domains shown)
VH: QVQLVQSGADVKKPGASVKVSCKTSGYIFTGYYIHWVRQAPGQGLEWMGWINPNSGGTNSAQKFQGRVTMTRDTSISTVYMELSRLRSDDTAVYYCAKSNSFSVLDYNFDYWGQGTLVTVSS
VL: SSELTQDPAVSVALGQTVRITCQGDSLRSYYASWYQQKPGQAPVLVIYDKNNRPSGIPDRFSGSSSGNTASLTITGAQAEDEADYYCNSRDSSRNHLVVFGGGTKLTVLG
B13: mAb14255 (antibody, V domains shown)
VH: QVQLQESGPGLVKPSETLSLTCTVSGGSISGYYWSWIRQPPGKGLDWIGYIYYRGNTNYNPSLKSRVTISVDTSNNQFSLKLSSVTAADTAVYYCARYGEGYGDASGYHFDYWGQGTLVTVSS
VL: QSALTQPASVSGSPGQSITISCTGTSSDVGSYNLVSWYQQHPGKAPKLMIYEDSKRPSGVANPFSGSKSGNTASLTISGLQAEDEADYYCSSYAGSSTWVFGGGTKLTVLG
B14: mAb14285 (antibody, V domains shown)
VH: QVQLVQSGAEVKKPGASVKVSCKASGYTFTGYFIHWVRQAPGQGLEWMGWISPISGGTNYAQKFQGRVTVTRDTSITTAYMELSRLTSDDTAVYHCAREGGTWKGDFDYWGQGTLVTVSS
VL: QSALTQPASVSGSPGQSITISCTGTSSDVESYNLVSWYQQHPGKAPKLMIYEGSKRPSGVSNRFSGSKSGNTASLTISGLQAEDEADYYCSSYAGSSTWVFGGGTKLTVLG
B15: mAb15157 (antibody, V domains shown)
VH: EVQLVESGGALVQPGGSLRLSCAASGFPFTIYAMTWVRQAPGKGLEWVSVITGSGDSTYYADSVKGRFTISRDNSKNTLYLQMNSLRAEDTAVYYCVKTGEGFFYYYYGMDVWGQGTTVTVSS
VL: QSVLTQPPSVSAAPGQKVTISCSGSSSNIGNSYISWYQQLPGTAPKLLIYVNNKRPSGIPDRFSGSKSGTSATLGITGLQTGDEADYYCGTWDSSLSAGVFGSGTKVTVLG
B16: mAb15161 (antibody, V domains shown)
VH: EVQLVESGGGLVQPGGSLRLSCAASGFTFSSYEMNWVRQAPGKGLEWVSYISSSGSILYYADSVKGRFTASRDNAKNSLYLQMNSLRAEDTGVYYCARREYQLLRPFEFWGQGTLVTVSS
VL: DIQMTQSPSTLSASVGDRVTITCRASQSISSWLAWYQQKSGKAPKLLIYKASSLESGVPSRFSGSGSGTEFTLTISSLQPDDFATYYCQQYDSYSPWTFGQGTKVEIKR
B17: mAb14282 (antibody, V domains shown)
VH: QVQLVQSGAEVKKPGASVKVSCKASGYIFTDHYMHWVRQAPGQGLEWMGWINPNSGATNYAQNFQGRVTMTRDTSIITVYMELSRLRSDDTAVYYCARDSSPYMIRYTMDVWGQGTTITVSS
VL: QSALTQPASVSGSPGQSITISCTGTSSDVGSYNLVSWYQQHPGKAPKLMIYELTKRPSGVSNRFSGSKSGNTASLTISGLQAEDEADYYCSSYRGSVTDVVFGGGTKLTVLG
B18: mAb15160 (antibody, V domains shown)
VH: EVQLVESGGGLVQPGGSLRLSCSASGFTFSRYAMYWVRQAPGKGLEYVSAISSDGGSTYDADSVKGRFTISRANSKNTLYLQMSSLRAEDTAVYYCVKGLRELLYYYYGMDVWGQGTTVTVSS
VL: DIQMTQSPSSLSASVGDRVTITCRAGQSISSFLNWYQQKPGKAPKLLIYAASSLQSGVPSRFSGSGSGTDFTLTISSLQPEDFATYYCQQSYITPFTFGPGTKVDIKR

The assay concerns the target SARS-COV-2 RBD extracellular domain expressed with a C-terminal myc-myc-hexahistidine tag (SARS-COV-2 RBD-mmH) (SARS-CoV-2). Kind of assay: SPR Biacore, mAb captured on anti-hFc, RBD-mmH analyte, 37 C.
In general, Kd refers to the free concentration of one partner at which half of the binding sites on the other are occupied at equilibrium, for simple one-to-one binding. One may read the koff as the first-order rate constant of dissociation. What is called kon is a measure of how fast the partners come together. A lower kon goes with slower complex formation. By t½ is commonly meant how long it takes for the measured level to halve. Read a high t½ as slow loss. Turning to B1, binding was characterised by a dissociation constant (Kd) of 14.4 nM, the koff is 0.00535 s⁻¹, the kon was 373000 M⁻¹ s⁻¹ and the t½ was determined as 2.2 min.
For B2, the Kd was determined as 60.7 nM, the off-rate constant (koff) came out at 0.0218 s⁻¹, the kon came to 359000 M⁻¹ s⁻¹ and the t½ came to 0.5 min.
As for B3, the dissociation constant (Kd) was determined as 7.61 nM, the koff was determined as 0.00876 s⁻¹, the kon was determined as 1.15e+06 M⁻¹ s⁻¹ and the t½ came to 1.3 min.
B4 showed a Kd of 1.21 nM, a koff of 0.000176 s⁻¹, a kon of 146000 M⁻¹ s⁻¹ and a t½ of 65.6 min.
As to B5, the Kd worked out at 1.65 nM, the koff is 0.000207 s⁻¹, the kon turned out to be 126000 M⁻¹ s⁻¹ and the t½ turned out to be 55.7 min.
In the case of B6, the Kd was 3.07 nM, the koff stood at 0.0104 s⁻¹, the kon came out at 3.38e+06 M⁻¹ s⁻¹ and the t½ is 1.1 min.
Turning to B7, the Kd stood at 16.2 nM, the koff was found to be 0.0248 s⁻¹, the kon was determined as 1.53e+06 M⁻¹ s⁻¹ and the t½ turned out to be 0.5 min.
B8: the Kd is 29.2 nM, the koff stood at 0.00299 s⁻¹, the kon turned out to be 103000 M⁻¹ s⁻¹ and the t½ turned out to be 3.9 min.
In turn, B9 returned a Kd of 8.24 nM, a koff of 0.0115 s⁻¹, a kon of 1.4e+06 M⁻¹ s⁻¹ and a t½ of 1 min.
With B10, the Kd was 22.3 nM, the koff is 0.0119 s⁻¹, the kon is 534000 M⁻¹ s⁻¹ and the t½ worked out at 1 min.
With B11, the Kd came to 7.92 nM, the koff was determined as 0.0372 s⁻¹, the kon is 4.69e+06 M⁻¹ s⁻¹ and the t½ stood at 0.3 min.
On to B12, for which the Kd is 5.2 nM, the koff came to 0.00582 s⁻¹, the on-rate constant (kon) worked out at 1.12e+06 M⁻¹ s⁻¹ and the t½ was found to be 2 min.
In turn, B13 came in with a Kd of 2.76 nM, a koff of 0.00535 s⁻¹, an association rate constant (kon) of 1.94e+06 M⁻¹ s⁻¹ and a t½ of 2.2 min.
The molecule B14 had a dissociation constant Kd of 13.1 nM, a koff of 0.0274 s⁻¹, a kon of 2.09e+06 M⁻¹ s⁻¹ and a t½ of 0.4 min.
The molecule B15 registered a Kd of 11.6 nM, a koff of 0.00399 s⁻¹, a kon of 344000 M⁻¹ s⁻¹ and a t½ of 2.9 min.
B16 displayed a Kd of 3.29 nM, a koff of 0.000866 s⁻¹, a kon of 263000 M⁻¹ s⁻¹ and a t½ of 13.3 min.
As to B17, the Kd was found to be 5.37 nM, the off-rate (koff) was determined as 0.0106 s⁻¹, the kon was found to be 1.98e+06 M⁻¹ s⁻¹ and the t½ stood at 1.1 min.
For B18, in that order: 7.79 nM, 0.00194 s⁻¹, 250000 M⁻¹ s⁻¹ and 5.9 min.
